# Experimental data taken from patent US20260250420A1 (SICHUAN KELUN BIOTECH BIOPHARMACEUTICAL, published 2026).
# B1: 101A6HZ (anti-human PTK7 humanized antibody) (antibody, human IgG1, kappa)
# heavy: not shown
# light: DIVMTQSPDSLAVSLGERATINCKASQDVGSAVIWYQQKPGQSPKLLIYWASTRHTGVPDRFSGSGSGTDFTLTISSLQAEDVAVYYCQQYSSYPLTFGQGTKLEIKRTVAAPSVFIFPPSDEQLKSGTASVVCLLNNFYPREAKVQWKVDNALQSGNSQESVTEQDSKDSTYSLSSTLTLSKADYEKHKVYACEVTHQGLSSPVTKSFNRGEC
# B2: Hu24 (PTK7 control antibody, taken from Hu24 in the Patent CN201580030255) (antibody)
# chain 1: QVQLVQSGPEVKKPGASVKVSCKASGYTFTDYAVHWVRQAPGKRLEWIGVISTYNDYTYNNQDFKGRVTMTRDTSASTAYMELSRLRSEDTAVYYCARGNSYFYALDYWGQGTSVTVSS
# chain 2: EIVLTQSPATLSLSPGERATLSCRASESVDSYGKSFMHWYQQKPGQAPRLLIYRASNLESGIPARFSGSGSGTDFTLTISSLEPEDFAVYYCQQSNEDPWTFGGGTKLEIK
# B3: 64A10HZ (anti-human PTK7 humanized antibody) (antibody, human IgG1, kappa, V domains shown)
# VH: QVQLQESGPGLVKPSETLSLTCTVSGFSLTSYGVYWVRQPPGKGPEWLGVIWTSGNTNYNPSLKSRLTISKDNSKNQVSLKLSSVTAADTAVYYCVKHDGGNYVGVMNYWGQGTLVTVSS
# VL: EIVMTQSPDFQSVTPKEKVTITCRASQSISDYLHWYQQKPDQSPKLLIKYASQSISGVPSRFSGSGSGSDFTLTINSLEAEDAATYYCQNGHSFPPTFGQGTKLEIKR
# notes: Human IgG1 heavy chain constant region and human Kappa light chain constant region; expressed in CHO-S cells
# Tests used:
# [1] = target: T1, human PTK7 on cells (tumor cells endogenously expressing PTK7); CHO-hPTK7, CHO-S-hPTK7 and 293T-hPTK7 … (human, UniProt Q13308 31-1070); test: competition flow cytometry on 293T-hPTK7 cells, streptavidin-PE; competitor: biotin-labelled 101A6HZ
# T1 construct: whole, on cells; The cell line of each value is named under assay; also called H1299; H358
# T1 sequence (looked up): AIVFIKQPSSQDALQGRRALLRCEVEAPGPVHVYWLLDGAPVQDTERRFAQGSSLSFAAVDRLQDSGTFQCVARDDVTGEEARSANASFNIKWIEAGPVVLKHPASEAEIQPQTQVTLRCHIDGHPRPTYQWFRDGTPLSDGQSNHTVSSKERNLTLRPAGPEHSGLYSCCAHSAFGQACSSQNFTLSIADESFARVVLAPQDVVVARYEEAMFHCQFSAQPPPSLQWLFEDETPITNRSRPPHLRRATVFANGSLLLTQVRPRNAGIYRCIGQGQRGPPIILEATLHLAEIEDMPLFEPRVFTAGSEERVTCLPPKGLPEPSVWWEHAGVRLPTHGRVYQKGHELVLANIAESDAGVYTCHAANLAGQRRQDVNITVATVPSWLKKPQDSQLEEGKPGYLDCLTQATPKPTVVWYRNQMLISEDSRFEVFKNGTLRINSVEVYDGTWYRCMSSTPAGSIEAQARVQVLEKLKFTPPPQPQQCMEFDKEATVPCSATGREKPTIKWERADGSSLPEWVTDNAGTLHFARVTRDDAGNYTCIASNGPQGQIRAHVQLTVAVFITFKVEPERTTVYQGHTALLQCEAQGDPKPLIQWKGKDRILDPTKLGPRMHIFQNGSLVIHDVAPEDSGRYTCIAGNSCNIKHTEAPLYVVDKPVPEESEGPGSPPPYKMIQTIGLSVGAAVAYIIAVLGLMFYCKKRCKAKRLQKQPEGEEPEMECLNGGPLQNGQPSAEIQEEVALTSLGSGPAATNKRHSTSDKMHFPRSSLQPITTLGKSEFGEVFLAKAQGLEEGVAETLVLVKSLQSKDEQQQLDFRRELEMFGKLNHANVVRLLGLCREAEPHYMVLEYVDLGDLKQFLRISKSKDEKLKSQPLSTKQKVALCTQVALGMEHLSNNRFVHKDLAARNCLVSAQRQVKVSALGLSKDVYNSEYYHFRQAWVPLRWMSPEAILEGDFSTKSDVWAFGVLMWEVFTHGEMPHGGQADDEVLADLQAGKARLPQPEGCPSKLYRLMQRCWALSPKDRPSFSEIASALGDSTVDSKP
# [2] = target: T2, human Fc receptor protein FcRn (human, UniProt P55899 24-297; P61769 21-119, biotinylated); test: BLI (ForteBio), biotinylated receptor on SA sensor, antibody from 5,000 nM, 1:1 global fit
# T2 construct: Biotinylated protein captured on SA sensors
# T2 sequence (P55899 24-297 limits assumed, form in doubt, chain 1 of 2): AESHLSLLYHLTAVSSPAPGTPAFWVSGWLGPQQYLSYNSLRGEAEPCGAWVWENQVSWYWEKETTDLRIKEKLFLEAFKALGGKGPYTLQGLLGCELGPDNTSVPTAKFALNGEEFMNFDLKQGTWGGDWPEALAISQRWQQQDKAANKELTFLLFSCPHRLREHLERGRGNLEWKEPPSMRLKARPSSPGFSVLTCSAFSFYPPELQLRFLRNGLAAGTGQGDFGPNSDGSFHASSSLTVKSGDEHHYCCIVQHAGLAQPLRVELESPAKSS
# T2 sequence (P61769 21-119 limits assumed, form in doubt, chain 2 of 2): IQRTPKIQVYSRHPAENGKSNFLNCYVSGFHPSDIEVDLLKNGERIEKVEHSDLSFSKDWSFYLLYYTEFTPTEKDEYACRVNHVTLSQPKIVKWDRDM
# Excerpt: The dynamic affinity of the antibodies 101A6HZ, 101A6HZm and Hu24 with human Fc receptor proteins CD16a, CD32a, CD32b, CD64 and FcRn was detected through ForteBio (Pall life sciences).
# [3] = target: T1, human PTK7 on cells (tumor cells …); test: flow cytometry on CHO-hPTK7 overexpression cells
# Excerpt: (§1) A flow cytometer (Beckman, Cytoflex) was used for detecting the affinity of the anti-human PTK7 chimeric and humanized antibodies with human non-small cell lung cancer cells H1299, human lung adenocarcinoma cells H1975, human breast cancer cells T47D, human ovarian cancer cells OVCAR-3 (all purchased from NANJING COBIOER BIOSCIENCES CO., LTD) and CHO-hPTK7 overexpression cells.
# (§2) The adherent cells were digested by using a pancreatin (Gibco) solution; a proper amount of cells were counted and taken, washed twice by using 1×PBS, and re-suspended in a 1% BSA solution; and then the cells were transferred into a 96-well deep plate at a density of 50 μl/well; a candidate antibody was diluted by using 1% BSA, then 50 μl of diluted antibody was added into the deep plate containing the cells, and incubated for 40 min at 4° C.; the cells were washed twice by using PBS, then 50 μl of diluted secondary antibody was added into each well, uniformly mixed, and incubated for 30 min at 4° C.; and the cells were washed twice by using PBS, then re-suspended in 400 μl of PBS, and subjected to examination by flow cytometer.
# [4] = target: T1, human PTK7 on cells (tumor cells …); test: flow cytometry on OVCAR-3 cells
# Excerpt: as §1, §2
# [5] = target: T1, human PTK7 on cells (tumor cells …); test: flow cytometry on H1299 cells endogenously expressing PTK7
Binder,IC50 (read off the curve) [1],Kd [2],EC50 [3],EC50 [4],EC50 [5]
B1,~1 µg/mL,11.8 nM,0.176 µg/mL,,
B2,,,0.308 µg/mL,0.123 µg/mL,0.293 µg/mL
B3,,,,0.0613 µg/mL,
